Experimental data as given in patent US20030152576A1 (published 2003).

T1: human CD14 with amino acids 39, 40, 41, 43 and 44 substituted with alanine (mut6) (human, UniProt P08571 20-345)
T1 construct: whole, on cells; The positions count on the mature protein (add 19 for the precursor entry); also called CD14mut6; CHO-Mut6
T1 sequence (looked up): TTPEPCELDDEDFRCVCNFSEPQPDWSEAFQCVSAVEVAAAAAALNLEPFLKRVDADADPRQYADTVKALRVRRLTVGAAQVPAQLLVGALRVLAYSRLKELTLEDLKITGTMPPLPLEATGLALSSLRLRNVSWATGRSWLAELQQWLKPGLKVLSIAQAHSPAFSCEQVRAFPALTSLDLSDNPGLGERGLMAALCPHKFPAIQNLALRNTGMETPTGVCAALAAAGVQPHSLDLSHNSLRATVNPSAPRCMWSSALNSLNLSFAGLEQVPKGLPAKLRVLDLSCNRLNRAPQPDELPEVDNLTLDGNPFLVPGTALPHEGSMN

B1: biotinylated recombinant HBsAg particles, which only contain S protein (b-rHBsAg) (other)
chain: MENITSGFLGPLLVLQAGFFLLTRILTIPQSLDSWWTSLNFLGGSPVCLGQNSQSPTSNHSPTSCPPICPGYRWMCLRRFIIFLFILLLCLIFLLVLLDYQGMLPVCPLIPGSTTTSTGPCKTCTTPAQGNSMFPSCCCTKPTDGNCTCIPIPSSWAFAKYLWEWASVRFSWLSLLVPFVQWFVGLSPTVWLSAIWMMWYWGPSLYSIVSPFIPLLPIFFCLWVYI
modifications: biotinylated on lysine residues (the three lysine residues which can become biotinylated all lie in the major antigenic region of the S protein; positions 122 and 141 are named)
notes: domain: S protein; Multimeric virus-like particle with lipid; also called biotinylated rHBsAg

Legend:
human CD14 (human) = human CD14 (human) (UniProt P08571); assay: flow cytometry, hCD14-CHO cells, FITC-labelled mAb
mouse CD14 (mouse) = mouse CD14 (mouse) (UniProt P10810); assay: flow cytometry, mCD14-CHO cells, FITC-labelled mAb
Chain of mouse CD14 (mouse) (P10810 16-336): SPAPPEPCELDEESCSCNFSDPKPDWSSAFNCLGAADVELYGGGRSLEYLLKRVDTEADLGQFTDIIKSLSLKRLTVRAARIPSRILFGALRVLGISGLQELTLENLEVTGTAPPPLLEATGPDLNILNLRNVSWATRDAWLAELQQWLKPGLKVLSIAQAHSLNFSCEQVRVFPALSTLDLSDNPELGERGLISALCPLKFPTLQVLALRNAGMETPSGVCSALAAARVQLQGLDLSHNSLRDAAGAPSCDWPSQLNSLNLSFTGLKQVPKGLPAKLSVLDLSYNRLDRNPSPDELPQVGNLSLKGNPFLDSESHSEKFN

[1] = biological target: B1; assay: flow cytometry competition; b-rHBsAg pre-incubated with recombinant sCD14 in 2% HS-HBSS, then binding to monocytes of PBMC
[2] = biological target: T1, human CD14 with amino acids 39, 40, 41, …; assay: flow cytometry on CHO cells transfected with mut6, 2% HS-HBSS, Strep-PE

Molecule | Median Fluorescence (human CD14 (human)) | Median Fluorescence (mouse CD14 (mouse)) | IC50 [1] [µg/mL] | binding result [2]
Mouse anti-human CD14 (clone My4) (antibody) | 291 | 0.12 | – | –
Mouse anti-human CD14 (clone M(P9)) (antibody) | 502 | 0 | – | –
Rat anti-mouse CD14-FITC (clone rmC5-3, IgG1) (antibody) | 0 | 24 | – | –
recombinant soluble CD14 (receptor, also called sCD14; recombinant sCD14) TTPEPCELDDEDFRCVCNFSEPQPDWSEAFQCVSAVEVEIHAGGLNLEPFLKRVDADADPRQYADTVKALRVRRLTVGAAQVPAQLLVGALRVLAYSRLKELTLEDLKITGTMPPLPLEATGLALSSLRLRNVSWATGRSWLAELQQWLKPGLKVLSIAQAHSPAFSCEQVRAFPALTSLDLSDNPGLGERGLMAALCPHKFPAIQNLALRNTGMETPTGVCAALAAAGVQPHSLDLSHNSLRATVNPSAPRCMWSSALNSLNLSFAGLEQVPKGLPAKLRVLDLSCNRLNRAPQPDELPEVDNLTLDGNPFLVPGTALPHEGSMNSGVVPACARSTLSVGVSGTLVL | – | – | > 2.5 | –
B1 | – | – | – | no binding
